Assays:
[1] = target: Recombinant human JAK2 immobilized on agarose beads (human), O60674; assay: cell-based or functional assay
[2] = target: T1, biotinylated phosphorylated JAK2 WT peptide (p-JAK2 WT) (human (the JAK2 WT sequence is the same for both mice and humans)); assay: solid phase binding assay, biotinylated peptide on immobilized Tkip (FIG. 4)
T1 chain: LPQDKEYYKVKEP

Sequence of Recombinant human JAK2 immobilized on agarose beads (human), O60674 (O60674 whole entry): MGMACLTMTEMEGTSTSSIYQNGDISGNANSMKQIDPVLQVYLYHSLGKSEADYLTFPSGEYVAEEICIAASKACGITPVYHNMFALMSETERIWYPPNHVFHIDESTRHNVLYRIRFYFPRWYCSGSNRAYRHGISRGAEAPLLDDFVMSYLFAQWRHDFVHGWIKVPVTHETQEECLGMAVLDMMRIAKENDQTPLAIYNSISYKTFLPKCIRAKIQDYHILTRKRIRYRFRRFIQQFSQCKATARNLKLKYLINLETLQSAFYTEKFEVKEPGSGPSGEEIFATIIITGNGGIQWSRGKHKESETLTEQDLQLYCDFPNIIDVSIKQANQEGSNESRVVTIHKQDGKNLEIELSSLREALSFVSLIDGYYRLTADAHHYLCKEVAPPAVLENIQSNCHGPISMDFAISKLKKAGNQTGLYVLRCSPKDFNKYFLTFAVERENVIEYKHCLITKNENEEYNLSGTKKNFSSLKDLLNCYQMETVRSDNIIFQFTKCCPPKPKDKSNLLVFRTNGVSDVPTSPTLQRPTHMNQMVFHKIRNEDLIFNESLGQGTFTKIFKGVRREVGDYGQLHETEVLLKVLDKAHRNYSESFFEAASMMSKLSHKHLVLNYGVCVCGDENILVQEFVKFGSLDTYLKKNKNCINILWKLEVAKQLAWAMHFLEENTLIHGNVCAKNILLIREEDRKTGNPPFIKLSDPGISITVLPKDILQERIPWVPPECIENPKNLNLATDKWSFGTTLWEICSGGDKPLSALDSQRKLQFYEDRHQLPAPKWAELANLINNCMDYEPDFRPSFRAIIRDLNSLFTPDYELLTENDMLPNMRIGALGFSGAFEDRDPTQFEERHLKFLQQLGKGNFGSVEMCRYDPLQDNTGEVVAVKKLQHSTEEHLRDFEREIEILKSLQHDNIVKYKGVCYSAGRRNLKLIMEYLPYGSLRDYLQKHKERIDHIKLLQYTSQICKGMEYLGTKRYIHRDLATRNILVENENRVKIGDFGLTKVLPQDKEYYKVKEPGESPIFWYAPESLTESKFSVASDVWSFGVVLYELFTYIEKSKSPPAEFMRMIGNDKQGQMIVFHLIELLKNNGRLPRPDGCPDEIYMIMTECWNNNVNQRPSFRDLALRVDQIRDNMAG

WLVFFVIFYFFR (modifications not checked) [Tkip (tyrosine kinase inhibitor peptide), …]
inhibition of 32P incorporation into JAK2/IFNGR-1 (Tkip at 50 µM) [1]: > 95%
fold lower fifty percent endpoint concentration against unphosphorylated JAK2 WT [2]: 9 fold

Reference: US20040265963A1
